Laboratory results as given in the supplement of paper PMC10126150.
± gives the standard deviation of the averaged measurements.

tested on: ATP; assay: switch fluorescence ratio, 500 uM ATP over buffer (Cy3 cluster intensity, sum of 5 cycles each) (fold (ratio)); higher = stronger signal-on switching upon ATP binding; sequences stand for … in TCGTCGGCAGCGTCAGATGTGTATAAGAGACAGTTTTTTTTTTTTTTTTTTTTTTTTT…TC; conditions: aptamer strand: ATP DNA aptamer (quencher-CACCTGGGGGAGTATTGCGGAGGAAGG + anchor), 100 nM annealed; ATP concentration: 500 uM
In short: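 Values give the fluorescence ratio for each switch-domain sequence, averaged from per-cluster ratios of summed target-cycle to summed buffer-cycle Cy3 intensity. The Cy3-labelled switching-strand clusters sat on a modified Illumina MiSeq flow-cell, were annealed to 100 nM quencher-labelled ATP aptamer, and were imaged in selection buffer, then after 15 min with 500 uM ATP at 22 °C. Five cycles ran with NaOH stripping and re-annealing between them, and clusters outside 100-1000 RFU were excluded.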
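Also: ATP exposure 15 min at 22 °C before imaging.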

GCATTTAAGT and TATTGTAATG are within error of each other in switch fluorescence ratio: 0.993 ± 0.06 for the first, 1.04 ± 0.0081 for the second.

TTTAATTATT and TTCAATTGTT are the same in switch fluorescence ratio: 1.02 ± 0.0053 for the first, 1.02 ± 0.017 for the second.

Compared with CGGAGTAGGG, TTGGGGGG is lower in switch fluorescence ratio: 1.058 ± 0.0023 for the first, 1.004 ± 0.0069 for the second.

TCGAGGTCGA and GAAGGGATGT are the same in switch fluorescence ratio: 1.01 ± 0.039 for the first, 1.01 ± 0.042 for the second.

CGAGGCGGAG and CAATGCAGTG are within error of each other in switch fluorescence ratio: 1.01 ± 0.028 for the first, 1 ± 0.019 for the second.

TCATTTGTTG and ATGTTAGGG are within error of each other in switch fluorescence ratio: 1.01 ± 0.035 for the first, 0.98 ± 0.011 for the second.

GGATTTGAGT and CGGTTTTGGG are within error of each other in switch fluorescence ratio: 0.976 ± 0.015 for the first, 0.977 ± 0.012 for the second.

AATGTTTTCT and GATGGGCCGG are within error of each other in switch fluorescence ratio: 1.05 ± 0.057 for the first, 1 ± 0.039 for the second.

TTGGGGTTTA and CCAGTTATGG are within error of each other in switch fluorescence ratio: 1.03 ± 0.026 for the first, 0.999 ± 0.068 for the second.

Going from CGCGCAGGGG to TCGGCTGGGG, the switch fluorescence ratio falls from 1.69 ± 0.076 to 0.991 ± 0.014.

Compared with TTTTCTTGTC, TAGTTTTATG is lower in switch fluorescence ratio: 1.038 ± 0.0076 for the first, 0.959 ± 0.015 for the second.

TGAGAGGGTG and TGCTGGGTCC are within error of each other in switch fluorescence ratio: 1.04 ± 0.041 for the first, 1.02 ± 0.02 for the second.

ATTTCGGGAG and CGTTGGAATG are within error of each other in switch fluorescence ratio: 1.01 ± 0.052 for the first, 0.981 ± 0.015 for the second.

TCACATTTGG and TCGGTTGGGA are within error of each other in switch fluorescence ratio: 1.03 ± 0.045 for the first, 0.986 ± 0.038 for the second.

First: TGTTGTCAGG
Second: AGGCTAACGA
The switch fluorescence ratio of the first is lower: 0.99 ± 0.025 for the first, 1.015 ± 0.0049 for the second.

First: AATTGCCGCG
Second: CTCCGGGCGA
The switch fluorescence ratio of the first is lower: 1.02 ± 0.055 for the first, 4.47 ± 1 for the second.

GTACAGGTTT and ACAAGGGGCG are within error of each other in switch fluorescence ratio: 1.018 ± 0.0074 for the first, 1.05 ± 0.079 for the second.

Going from GCAACCATTA to TCAGGATTGT, the switch fluorescence ratio falls from 1.03 ± 0.018 to 0.967 ± 0.031.

AATTACTGG and CCTGGAGGGG are within error of each other in switch fluorescence ratio: 1 ± 0.031 for the first, 1.07 ± 0.066 for the second.

GCAGGTGGCG and GTAAGAGGAA are the same in switch fluorescence ratio: 1.01 ± 0.044 for the first, 1.01 ± 0.044 for the second.

Going from CGACGGATTT to GGCAGAGATG, the switch fluorescence ratio falls from 1.12 ± 0.029 to 1.02 ± 0.046.

GCGAGGTCGG and GATGGAGGTT are within error of each other in switch fluorescence ratio: 1.03 ± 0.07 for the first, 0.996 ± 0.055 for the second.

CCGGGGGATG and ATCGAGGTCC are within error of each other in switch fluorescence ratio: 1.03 ± 0.042 for the first, 1.01 ± 0.074 for the second.

CCCGTGTGAG and ACCATGCGTT are within error of each other in switch fluorescence ratio: 0.983 ± 0.045 for the first, 0.992 ± 0.03 for the second.

ACGAGGTTCT and CGGATAGGTT are within error of each other in switch fluorescence ratio: 1.016 ± 0.003 for the first, 1.01 ± 0.017 for the second.

TACGGTTTGG and GAACTTGGTT are within error of each other in switch fluorescence ratio: 0.988 ± 0.056 for the first, 1 ± 0.062 for the second.

ATTATGTCTT and GAGTCAGGTA are within error of each other in switch fluorescence ratio: 0.9878 ± 0.0094 for the first, 1.01 ± 0.029 for the second.

GGGCGCCCCC and TGGGTTGACG are within error of each other in switch fluorescence ratio: 1.08 ± 0.14 for the first, 0.998 ± 0.037 for the second.

Going from GGGACATTAT to TCCCGTATCC, the switch fluorescence ratio rises from 1 ± 0.02 to 1.07 ± 0.036.

CGGGTATGGT and CGGATTAATT are within error of each other in switch fluorescence ratio: 1 ± 0.027 for the first, 0.9862 ± 0.0024 for the second.

TTTTGTCTTT and CTCTGTTACA are within error of each other in switch fluorescence ratio: 1 ± 0.032 for the first, 1.04 ± 0.038 for the second.

Compared with CGGCCGAGGT, GGATGTTCGT is lower in switch fluorescence ratio: 1.02 ± 0.02 for the first, 0.9911 ± 0.0083 for the second.

TACCTTTTAA and ACTCGGGGTG are within error of each other in switch fluorescence ratio: 1.02 ± 0.026 for the first, 0.998 ± 0.025 for the second.

GTTGGGTTTG and TTTTGCAGCC are within error of each other in switch fluorescence ratio: 0.999 ± 0.026 for the first, 0.976 ± 0.02 for the second.

TTCTTGACTT and CACGGGGGTG are within error of each other in switch fluorescence ratio: 1.02 ± 0.011 for the first, 0.987 ± 0.03 for the second.

ACCAAATTAT and TGGTACTTGT are within error of each other in switch fluorescence ratio: 1.03 ± 0.058 for the first, 1.01 ± 0.027 for the second.

CAAAGTTGGA and GGTTGCTGCC are within error of each other in switch fluorescence ratio: 1.01 ± 0.017 for the first, 0.9917 ± 0.0029 for the second.

TACATTTTTT and AGGGTCTTGA are the same in switch fluorescence ratio: 1.01 ± 0.022 for the first, 1.007 ± 0.0017 for the second.

CATGTATAGG and ATCAAAGCGG are within error of each other in switch fluorescence ratio: 0.987 ± 0.032 for the first, 0.998 ± 0.0094 for the second.

GTAATGATTG and TAGATGATGT are within error of each other in switch fluorescence ratio: 0.989 ± 0.014 for the first, 1.004 ± 0.01 for the second.

Compared with GCCGCTGTCG, AAGATGTAGG is higher in switch fluorescence ratio: 0.963 ± 0.045 for the first, 1.025 ± 0.0086 for the second.

GGGGTTTATC and AAGTTTCGCG are within error of each other in switch fluorescence ratio: 1.01 ± 0.04 for the first, 0.976 ± 0.027 for the second.

ATGGTCGCGG and GATTCAAGAT are within error of each other in switch fluorescence ratio: 0.985 ± 0.035 for the first, 0.993 ± 0.03 for the second.

ATTTTTACTT and TGGTTTTTTC are within error of each other in switch fluorescence ratio: 0.974 ± 0.032 for the first, 1.01 ± 0.033 for the second.

First: GAGGGCGCTG
Second: TGCTGCGGTG
The switch fluorescence ratio of the first is lower: 0.973 ± 0.011 for the first, 0.993 ± 0.0084 for the second.

GAGGGTTAGT and CAAGAGCGGT are within error of each other in switch fluorescence ratio: 0.9866 ± 0.0066 for the first, 1.02 ± 0.047 for the second.

TTGATCAACG and AAGATTGGGG are within error of each other in switch fluorescence ratio: 0.995 ± 0.014 for the first, 0.977 ± 0.019 for the second.

First: TGAGAGCTGA
Second: CAGCATGGGG
The switch fluorescence ratio of the first is lower: 0.9825 ± 0.0063 for the first, 1.03 ± 0.017 for the second.

TTTATTTAAC and AGGCCCGGAG are the same in switch fluorescence ratio: 1.052 ± 0.01 for the first, 1.05 ± 0.045 for the second.

GCGGCAAAAT and CGGAGGACGG are within error of each other in switch fluorescence ratio: 1.01 ± 0.041 for the first, 1.03 ± 0.032 for the second.

First: CCTCGTTGAA
Second: GGACCAGGGA
The switch fluorescence ratio of the first is higher: 1.22 ± 0.026 for the first, 1 ± 0.046 for the second.

First: TTTACGAAAA
Second: AGATGGGGCC
The switch fluorescence ratio of the first is higher: 1.12 ± 0.046 for the first, 1 ± 0.027 for the second.

First: TGTGATTTTG
Second: CGGTTTATGG
The switch fluorescence ratio of the first is higher: 0.998 ± 0.028 for the first, 0.943 ± 0.022 for the second.

CGGGAAATTG and ATATGCTTTC are within error of each other in switch fluorescence ratio: 0.9893 ± 0.0035 for the first, 0.994 ± 0.011 for the second.

AATTAACCCA and GGCGGCGGGG are within error of each other in switch fluorescence ratio: 1.05 ± 0.051 for the first, 1.03 ± 0.049 for the second.

TATACGATCT and TTTGGTGCGG are within error of each other in switch fluorescence ratio: 0.999 ± 0.03 for the first, 0.985 ± 0.01 for the second.

Compared with ATTTGTCTGG, GATATGGGGG is higher in switch fluorescence ratio: 0.9643 ± 0.0028 for the first, 1.01 ± 0.03 for the second.

TTCGGTGGGG and AGATAATTAG are within error of each other in switch fluorescence ratio: 0.9805 ± 0.0094 for the first, 1 ± 0.023 for the second.

TTATGATGGT and AATATTTGGT are within error of each other in switch fluorescence ratio: 0.992 ± 0.018 for the first, 0.974 ± 0.019 for the second.

First: ATTAAGGTCG
Second: AATATGTTGT
The switch fluorescence ratio of the first is higher: 1.07 ± 0.023 for the first, 0.98 ± 0.037 for the second.

TCGTGGATGG and CTTCAGGTTG are within error of each other in switch fluorescence ratio: 1 ± 0.026 for the first, 1.016 ± 0.0024 for the second.

ATGTGAGTAT and TGGTACATTA are within error of each other in switch fluorescence ratio: 0.9753 ± 0.0028 for the first, 1.34 ± 0.46 for the second.

GAGTGAGCTT and TCGGATGAGG are within error of each other in switch fluorescence ratio: 0.966 ± 0.046 for the first, 1 ± 0.042 for the second.

CACGATTTGG and CAGTGAAAAA are within error of each other in switch fluorescence ratio: 0.995 ± 0.014 for the first, 1.06 ± 0.089 for the second.

GAGTTTAGGT and TATTATTTTC are within error of each other in switch fluorescence ratio: 1.02 ± 0.011 for the first, 1.03 ± 0.046 for the second.

GGGGGCGTAC and GACGGCTGGA are within error of each other in switch fluorescence ratio: 1.06 ± 0.083 for the first, 1.007 ± 0.0029 for the second.

TAGCAGTATT and CGTAGTACGC are within error of each other in switch fluorescence ratio: 1.07 ± 0.065 for the first, 1.12 ± 0.04 for the second.

AAGAGGCTAA and GAGGTTTCAT are within error of each other in switch fluorescence ratio: 1 ± 0.036 for the first, 0.997 ± 0.016 for the second.

CGTTGCTGAT and TAAGGTTGGC are within error of each other in switch fluorescence ratio: 0.972 ± 0.035 for the first, 1.02 ± 0.04 for the second.

First: CGCGTCGGGA
Second: CTGAGGGAGC
The switch fluorescence ratio of the first is lower: 0.976 ± 0.044 for the first, 1.09 ± 0.061 for the second.

GTGAAATTGT and ACGGGGGGAA are within error of each other in switch fluorescence ratio: 1.01 ± 0.034 for the first, 1.02 ± 0.019 for the second.

First: GGCTCACGGT
Second: TCGGGGTTTT
The switch fluorescence ratio of the first is lower: 0.98015 ± 0.00082 for the first, 1.02 ± 0.036 for the second.

TTTGTTTTCT and ATAAAGACGT are within error of each other in switch fluorescence ratio: 1.01 ± 0.032 for the first, 1.02 ± 0.037 for the second.

AATATAGGGG and GCCGAGTTTC are within error of each other in switch fluorescence ratio: 0.996 ± 0.017 for the first, 1.02 ± 0.014 for the second.

GTGTTCATCG and GGCCGTTTGA are within error of each other in switch fluorescence ratio: 0.973 ± 0.037 for the first, 1.02 ± 0.048 for the second.

First: TCCGAACCTT
Second: CAGAGGTGCG
The switch fluorescence ratio of the first is higher: 1.88 ± 0.086 for the first, 0.969 ± 0.056 for the second.

In the case of TTCTGTGGAA, the switch fluorescence ratio is reported as 1.04 ± 0.036.
